Data from the supplement of paper PMC9170038.

System: MS2 coat protein
Experiment: apparent KD of MS2 coat protein; designed switch direction (-1 OFF switch, 1 ON switch): -1; higher = weaker reporter binding
Procedure, shortened: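 Designed RNA switches were transcribed on Illumina chips by stalled E. coli RNA polymerase and titrated with SNAP-549-labelled MS2 coat protein from 0.7 or 1.5 nM, doubling to 3 µM. Step length ran from 0.8–1.5 h at the lowest concentration to 10–20 min at the highest. The apparent KD is the median over clusters for each design, from curve-fitted normalised cluster fluorescence.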

[1] = Eterna round: R95, input ligand: FMN 200 uM
[2] = Eterna round: R95, input ligand: microRNA oligo, concentration not stated
[3] = Eterna round: R95, input ligand: none
[4] = input ligand: microRNA oligo, concentration not stated

Row | Sequence | apparent KD of MS2 coat protein [1] [µM] | apparent KD of MS2 coat protein [2] [µM] | apparent KD of MS2 coat protein [3] [µM] | apparent KD of MS2 coat protein (input ligand: FMN 200 uM) [µM] | apparent KD of MS2 coat protein [4] [µM] | apparent KD of MS2 coat protein (input ligand: none) [µM]
1 | GUGUGCAGAGGAUAUACAGAGGAAAAUAAUAAAUAAUAUUGACAUGAGGAUCACCCAUGUAGAAGGCUGAGUGU [Excluse me!! 25 - Jieux - Exclusion 2] (puzzle: Exclusion 2) | 0.0383 | 0.0374 | 0.0397 |  |  | 
2 | AGAUCUAGGACAGGAUAUACGGAUGUCUUCAUCGAAGAUGAAGACAUCACAUGAGGAUCACCCAUGUAGAAGGGUCCUAGAUCA [Omei Exc(NG) 2A] (Eterna round: R96, puzzle: Exclusion NG 2) |  |  |  | 0.0123 | 0.0109 | 0.0143
3 | UAGCCUUUAGUUAGGAUAUGAUAUGGGAACCAUUAUCAGAAGGAACAUGAGGAUCACCCAUGUACCGACAGGGA [Eternabot (L2) Solution 9] (Eterna round: R97, puzzle: Brourd's mod of Exclusion 4) |  |  |  | 0.0199 |  | 0.0123
4 | GCUUGAGCAGGAUAUACAAUGAGCUUGAGAAAUCGAGUUCGACAUGAGGAUCACCCAUGUAGAAGGGUUCGAGU [-27.3, -25 kcal, A 31% 1 and 1bis] (Eterna round: R97, puzzle: Exclusion 2) |  |  |  | 0.0384 |  | 0.0243
5 | AAUUUGUGAGGAUAUCCAAUAUAUGACAUGAGGAUCACCCAUGUUUCCACUCGUACCUCCGGAGAAGGCACUGCAA [Ex5 #38] (Eterna round: R97, puzzle: Exclusion 5) |  |  |  | 0.0214 |  | 0.0236
6 | GAGACGAAAGGAUAUACAUGAGGAUCACCCAUGUAUGAAACAUGAGAAGACACCGCUGGUAGAAGGUUUGGAAA [Eternabot (Original) Solution 46] (Eterna round: R97, puzzle: Exclusion 3) |  |  |  | 0.0268 |  | 0.0232
7 | CUCCAGCAAGGAUAUACAUAGUGACGUCUGUUUAAUCUUAAACAUGAGGAUCACCCAUGUAGAAGGUGCGUCAC [Biqugeza] (Eterna round: R97, puzzle: Exclusion 2) |  |  |  | 0.0194 |  | 0.0171
8 | CUGCUGGAGUUUUGCUUUGGUCGUACAUGAGGAUCACCCAUGUAGGAUAUGGUAAAAUUCGCCUGCUAGAAGGAUAGAGUGGUC [salish99_ExNG3_r04_621] (Eterna round: R96, puzzle: Exclusion NG 3) |  |  |  | 0.0355 | 0.023 | 0.0324
9 | AAAUACCGGUGAGGAUAUUUUUAAUAGAACUUUAUGAUAUACAUGAGGAUCACCCAUGUUACUUUAAAGAAGGCAUCGGAUAAA [Mat - Exclusion NG 2 - Mod of JL - D88] (Eterna round: R96, puzzle: Exclusion NG 2) |  |  |  |  | 0.0121 | 
10 | UUUAGUUCAGGAUAUGUAGAUUUUAACAUGAGGAUCACCCAUGUAGAUCCUGAAUUAACUACAGAAGGGAACAUUC [Exclusion 5: 2:c] (Eterna round: R96, puzzle: Exclusion 5) |  |  |  | 0.0508 | 0.0156 | 0.0207
11 | UGUUGUCGCGUAGGAUAUUGUCAACAGGCAAUAGGAUAUGCGAAAGCAGAAGGAUCGCCAACAGGCGAGAAGGACGGGACAACU [pwkr exNG2 2xF7 2xFMN.5] (Eterna round: R96, puzzle: Exclusion NG 2) |  |  |  | 0.142 | 0.913 | 1.14
12 | GCGUUCUGAGGAUAUACAUGAGGAUCACCCAUGUUGAGAAUUAUGUAUAAAAGAUUAUGUAGAAGGCAGAGUGC [JR_Ex3_Sub071] (Eterna round: R97, puzzle: Exclusion 3) |  |  |  | 0.14 |  | 0.716
13 | GUUAGACAUGAGGAUCACCCAUGUGAGGAUAUGAUGAGAAUGAAGUAAGAAGUAGGAAUCAGAAGGCACAUAUG [Mat - Mod of Hyphema D31] (puzzle: Exclusion 1) | 0.177 | 0.106 | 0.132 |  |  | 
14 | GGGCUGCGACGCAGCCCAACAAAACAUGAGGAUCACCCAUGUCAGGAUAUACCGAUGCAGCAUCUGUAGAAGGGACAGAUCCAA [Tiraonin] (Eterna round: R96, puzzle: Exclusion NG 3) |  |  |  |  | 0.0619 | 
15 | GUCCUCAUGACAUGAGGAUCACCCAUGUAUUAUUUGUUAACUGAGGAUAUACUCUUAAUUUUUAUGUAGAAGGCAGAUUCGGUC [JR_ExcNG3_Sub020] (Eterna round: R96, puzzle: Exclusion NG 3) |  |  |  |  | 0.0248 | 
16 | AUAAUGUAAGGAUAUCAGUCGUAAUUUAAUUUAAUAUCGACUGAGAAGGUACAUGAGGAUCACCCAUGUGGUCA [E4/9-B2] (Eterna round: R97, puzzle: Exclusion 4) |  |  |  | 0.148 |  | 0.574
17 | UUAUAUAAUGUGAGGAUAUGCUGGUCCUUGGAUCAGCAGAAGGCACAUGAGGAUCACCCAUGUAGUAAAUUUUA [JL bmx4 3.02] (puzzle: Brourd's mod of Exclusion 4) |  | 0.0179 |  |  |  | 

Row | Sequence | apparent KD of MS2 coat protein [1] [µM] | apparent KD of MS2 coat protein [2] [µM] | apparent KD of MS2 coat protein [3] [µM] | apparent KD of MS2 coat protein (input ligand: FMN 200 uM) [µM] | apparent KD of MS2 coat protein [4] [µM] | apparent KD of MS2 coat protein (input ligand: none) [µM]
18 | GAUUGACAUGAGGAUCACCCAUGUGAGGAUAUCGGCCGGACCUUGUUAGCUUCCAUCGCGAGAAGGUACAUAGG [Exclusion 1 V34] (puzzle: Exclusion 1) |  | 0.0169 |  |  |  | 
19 | UCCUGACAUGAGGAUCACCCAUGUUAGGAUAUGACAUUUGGCGCGACAGUGUGGAGUGUUAGAAGGGAUGUGGG [-29.9, -27.2 kcal, A 24%] (Eterna round: R97, puzzle: Exclusion 1) |  |  |  | 0.0183 |  | 0.0165
20 | CUCAUGUGAGGAUAUGAGUUAGGGCGAGAGCCCUAUGAAAAUUAGAAGGCACAUGAGGAUCACCCAUGUGAGAA [Rerige] (Eterna round: R97, puzzle: Exclusion 4) |  |  |  | 0.211 |  | 0.169
21 | UUAAUUAAUUGCGCAAGAUCACAUGAGGAUCACCCAUGUAUAUAGGAUAUCAGCUCGAUUAGAGCUGAGAAGGAUAUACAGCGC [ExNG3/3-A1] (Eterna round: R96, puzzle: Exclusion NG 3) |  |  |  | 0.711 | 0.192 | 0.313
22 | AAUGAUGAUGUGAGGAUAUACAUAGUUAGAAAGUAGUAGAAGGCACAUGAGGAUCACCCAUGUAGAUGUAAGGU [JR_BME4_Sub001] (puzzle: Brourd's mod of Exclusion 4) | 0.0525 | 0.0263 | 0.0246 |  |  | 
23 | AGAUAGUGCUGAGGAUAUCAGAAUAGAAAGAAAUGAGAAGGCGGACAUGAGGAUCACCCAUGUGAGGUCUUGAGACUACAUGGU [Prohibition 38 - Jieux - Exclusion NG 1] (Eterna round: R96, puzzle: Exclusion NG 1) |  |  |  | 0.21 | 0.0658 | 0.0773
24 | AAGAAACAUGAGGAUCACCCAUGUGAGGAUAUGAUAAAGAAAAGAAAAGAAAGAAGAAUCAGAAGGCACAAAGG [salish99-ex1_r3_031] (puzzle: Exclusion 1) | 0.129 | 0.051 | 0.054 |  |  | 
25 | GUAGAGUAAGGAUAUGCUGAAUAGGAUAGAAUGGUUAGAAAGCAGAAGGUACAUGAGGAUCACCCAUGUAAUGU [Excluse me!!!! 18 - Jieux - Exclusion 4] (puzzle: Exclusion 4) |  | 0.02 |  |  |  | 
26 | GCUUUUCUUUUCCUUUCUUACAUGAGGAUCACCCAUGUUUCUUGUCCUGCUCGCGUUGCUCGUCUGUCUGUCUGUUG [salish99_TOv1_r3_080] (puzzle: Sensor v3, turn-off variant 1) | 0.0287 | 0.0243 | 0.0312 |  |  | 
27 | CUGAUGUUAGGAUAUCAGGCACCCGCCACUGGCAGGGCGCAUGAGAAGGGACAUGAGGAUCACCCAUGUAGUAA [Gelaoren] (puzzle: Exclusion 4) |  | 0.0213 |  |  |  | 
28 | UGAUCUAGCGGAGGAUAUACAUGAGGAUCACCCAUGUAGUAGUGAGUACCGUAGUGCUCACUUGUGUAGAAGGCCGCUAGAUCU [JL ENG2 3.60] (Eterna round: R96, puzzle: Exclusion NG 2) |  |  |  | 0.0179 | 0.00986 | 0.0135
29 | CUGAUGUGAGGAUAUCUAAAAGAAACUGGGCAAAAUACCAGAGAGAAGGCACAUGAGGAUCACCCAUGUAACGA [Rabigeri] (puzzle: Exclusion 4) |  | 0.0195 |  |  |  | 
30 | CACAACAGAGGAUAUACAUGAGGAUCACCCAUGUGUUCCAGCUAGGAGACUAGCAAGUGUAGAAGGCUGUUGUG [Mat - Exclusion 3 - JL Mod - D10] (Eterna round: R97, puzzle: Exclusion 3) |  |  |  | 0.269 |  | 0.501
31 | UGUCUGUCAGGAUAUUCGAGUUCGAGUGAAAGCUUGAGCUUGAAGAAGGGACAUGAGGAUCACCCAUGUGGACG [-28.5, -27.4 kcal, A 27%, 1bis-(ca)1] (Eterna round: R97, puzzle: Exclusion 4) |  |  |  | 0.0878 |  | 0.0501
32 | GUCAGGAAAGGAUAUACAAGUAGUCACUCUCUUUGCAGUUCACAUGAGGAUCACCCAUGUAGAAGGUUCGGACG [EX2 C.9] (Eterna round: R97, puzzle: Exclusion 2) |  |  |  | 0.0389 |  | 0.0141
33 | CGUCAACAUGAGGAUCACCCAUGUUAGGAUAUGGCGGUCCAUGGUUGGGACUAGACCGCCAGAAGGAGCAUGCG [Eternabot (L1) Solution 54] (Eterna round: R97, puzzle: Exclusion 1) |  |  |  | 0.0719 |  | 0.0868
34 | UACAAUGCUUUUGUAAGGUACAUGAGGAUCACCCAUGUCUCGCAAAGGCUUGAUUAUCACGUACGCGCUUGUCUUGU [Eternabot (L1) Solution 17] (Eterna round: R97, puzzle: Sensor, turn-off variant 1) |  |  |  | 0.0143 |  | 0.0122
